Experimental data reported in the supplement of paper PMC10724198.
± gives the standard deviation of the averaged measurements.

System: Saccharomyces cerevisiae
Assay: protein stability index of tFT-peptide fusion (C-terminal peptide) (PSI (0-1 scale)); higher = more stable (slower turnover)
Settings: genetic background: wild type; temperature: 30 C
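Further: PSI is a weighted mean of sequencing reads over stability bins, variants kept only with over 10 reads, mCherry proximal and sfGFP distal, peptide attached via GGGS linker.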

Sequence | protein stability index
TAAEECIGRAIG | 0.671 ± 0.04
STELQKMPQIEY | 0.722 ± 0.11
GRSRAALASHIL | 0.612 ± 0.058
GYRMEGRVDSGG | 0.6495 ± 0.004
LGGWWVWSWGRG | 0.66 ± 0.023
CFFFFIFSLFGL | 0.515 ± 0.02
RRTSPNKNLKNQ | 0.618 ± 0.097
LAPSPTSRPIKC | 0.677 ± 0.018
SRSGASLRAARG | 0.722 ± 0.043
HIPRLPRPTRAP | 0.682 ± 0.059
GPKGLLKATSLS | 0.659 ± 0.064
ATATPPAPPPSP | 0.686 ± 0.011
LCRFPSSPQLPS | 0.7236 ± 0.0071
KGCRYVGARHEG | 0.698 ± 0.017
GARRLGLMVFDG | 0.669 ± 0.066
SFGTLPLNSTAS | 0.644 ± 0.029
QTRYAPCQRAPT | 0.645 ± 0.08
RKIKKRITREKM | 0.617 ± 0.082
HTPAPLPPPLHP | 0.691 ± 0.011
VIYIEYIGRNFI | 0.631 ± 0.027
GNRYLCIEVTWV | 0.48 ± 0.055
RGFGSLSKPMCH | 0.711 ± 0.012
FGRWVVVYRGLD | 0.625 ± 0.037
ISVPNPTRPDHP | 0.665 ± 0.063
LESGSARLFLWI | 0.746 ± 0.16
SPTPPRMPLSLP | 0.677 ± 0.024

Sequence | protein stability index
GSRAWERSERVR | 0.649 ± 0.084
LSLSPPPASPIP | 0.692 ± 0.011
VLGPFKKSIQVL | 0.522 ± 0.02
EEVAISFFFLSL | 0.468 ± 0.055
GVIFPQFDPCAL | 0.788 ± 0.056
IRPSNLRPPSYL | 0.682 ± 0.022
PPHSSPPPPPPS | 0.715 ± 0.028
RPPINRLCPWLL | 0.671 ± 0.032
VVGRVTGGGSDG | 0.646 ± 0.037
VRVKRAGGGGVG | 0.591 ± 0.028
YMGGGGASGAPA | 0.667 ± 0.047
AGWPAGARARAP | 0.712 ± 0.016
VDSYTGGFDLSW | 0.681 ± 0.062
VCEGFRTWALGG | 0.722 ± 0.03
VGGIVGWFCRGR | 0.698 ± 0.081
ISVSTDSPVRTW | 0.639 ± 0.023
PSPVLLPPFVSP | 0.706 ± 0.0089
RTQRGRMVGEQG | 0.732 ± 0.11
LPGGLSPPPFRI | 0.715 ± 0.064
IGTKKVINDKLL | 0.675 ± 0.028
MYSSIFTHVFGV | 0.734 ± 0.024
RTPAPENPPTSP | 0.609 ± 0.06
AGQGGWREAGGG | 0.676 ± 0.027
SPPPPTPLPPPP | 0.6757 ± 0.0047
VHGRAPTSRSGT | 0.72 ± 0.043
KGHGTTCVGRQV | 0.677 ± 0.04

Sequence | protein stability index
GWRHFVLFWCGL | 0.752 ± 0.022
EQGAGFWVGGEV | 0.757 ± 0.099
RFFAVSLGGLEF | 0.687 ± 0.031
AGEGGRKGGGSR | 0.676 ± 0.014
GVSCIAEGRGGL | 0.668 ± 0.025
HRAFAAGFGVWG | 0.669 ± 0.067
GGCEWWSWGRGG | 0.729 ± 0.041
PAQDCAATGVRR | 0.672 ± 0.037
TARGAAARSSQL | 0.747 ± 0.071
GTLGRMVTPAAW | 0.6358 ± 0.0039
VSAFLPLFLLTP | 0.601 ± 0.055
PTPHTTHPQNNT | 0.729 ± 0.0062
PPPPPPLPPPLP | 0.704 ± 0.056
VPCSIQWNLDEL | 0.673 ± 0.055
ADSVVAGKGASV | 0.686 ± 0.031
STKQTTTTERAI | 0.67 ± 0.013
ERHTASGHLLFV | 0.729 ± 0.14
PPPPPAPPPQPS | 0.699 ± 0.011
VSLVVGTGEWGA | 0.762 ± 0.17
SVQIKKIRRKNN | 0.6227 ± 0.0037
PPPPDHPRSSPV | 0.688 ± 0.037
GMVSPVRIVSRR | 0.654 ± 0.024
KKKKKKKTKKRK | 0.717 ± 0.029
VSPRYRDRPGPS | 0.692 ± 0.015
PFLLSPCSLSAS | 0.665 ± 0.026
VKEHRPQRNPSH | 0.675 ± 0.016

Sequence | protein stability index
PPPPRSLPLLPP | 0.67 ± 0.073
LRPCAGAVRPSA | 0.724 ± 0.0099
QGRIVSVILLSL | 0.557 ± 0.023
RQWAISRRWVVR | 0.562 ± 0.021
VSPPPRFPLLPS | 0.669 ± 0.03
GRCRPATLRGPG | 0.656 ± 0.012
LSFPFLFSVPFL | 0.733 ± 0.021
GVRAVRSCRMQR | 0.702 ± 0.072
GVSWMRAGFEFM | 0.779 ± 0.021
PPPLPPPPPPSP | 0.782 ± 0.083
HCPIPWASLNCL | 0.665 ± 0.0082
PRACPSSPASSL | 0.722 ± 0.024
CSRFPYSHSLSQ | 0.716 ± 0.016
KIKKKRKQKGKQ | 0.722 ± 0.046
PPAPPHHPPPSS | 0.679 ± 0.036
GEERRGRCGEKQ | 0.597 ± 0.087
PLLPSPLIPFSH | 0.688 ± 0.026
TYIVVAPTLARL | 0.67 ± 0.095
PPTPLAASPRPS | 0.722 ± 0.12
MFLVLEGIDSRV | 0.65 ± 0.051
KVQRINNKKERK | 0.677 ± 0.044
SVFGCLPFDLMV | 0.735 ± 0.0088
QILPVLSKPTWI | 0.736 ± 0.057
GGVGGGRAGVWG | 0.681 ± 0.021
SPPLPACSPPLA | 0.715 ± 0.035
TRYKSFWSLASI | 0.703 ± 0.064

Sequence | protein stability index
SCRGKTRPASGR | 0.64 ± 0.027
QAGGEYGLKVRW | 0.805 ± 0.033
RGARRGAPVCGW | 0.71 ± 0.0075
WCGGGGVACLLL | 0.693 ± 0.0086
PPLPPRPTPPPR | 0.711 ± 0.04
STRPPVRYHGAS | 0.728 ± 0.066
PPYSQPSSTPPH | 0.706 ± 0.092
NVSFHRSHLLYF | 0.654 ± 0.0067
FFLLLCSSCFGV | 0.583 ± 0.021
SQFGLGCCQRST | 0.723 ± 0.069
FWEGETVPTSEP | 0.788 ± 0.045
HRYSGSTFSAVL | 0.728 ± 0.11
SRWFEFSFLSQV | 0.707 ± 0.049
AYGGEWGDRGWL | 0.688 ± 0.076
YSEKFKDRFKED | 0.67 ± 0.015
PRPPPPRIPRPD | 0.7 ± 0.12
PLAGLWPCRSGS | 0.669 ± 0.016
TRRGDRVGVGSA | 0.589 ± 0.072
GLYYRGPSKKER | 0.73 ± 0.02
RRGCYLFTPRPG | 0.648 ± 0.015
PLGDIRPSPRDS | 0.681 ± 0.0086
WLEVHVRERPGL | 0.661 ± 0.035
PFLHPSSPPSPT | 0.698 ± 0.036
RGWKGGLSLGEI | 0.586 ± 0.021
TRLSRGTRVEYR | 0.651 ± 0.025
QAGARGRRGVRG | 0.678 ± 0.016

Sequence | protein stability index
VKENLCLLWVYR | 0.562 ± 0.013
ETKEAKKKTIDS | 0.7217 ± 0.0065
SPPHSLSSSCSL | 0.811 ± 0.05
SECFARSSSPRA | 0.7129 ± 0.0041
ICCASALPFDIS | 0.784 ± 0.19
YPLPPPRPPCLP | 0.664 ± 0.063
GFLCFRWACVRL | 0.487 ± 0.028
RAAPQEDFTFYR | 0.771 ± 0.14
GVVIGGAGYKGT | 0.633 ± 0.058
SATRLGLGLCWV | 0.6383 ± 0.0039
SVVGNYHQTEPV | 0.702 ± 0.059
VWAWGACPRGEG | 0.6429 ± 0.0016
GSPCPIVLICGL | 0.504 ± 0.034
AFLLAVIRSSCV | 0.55 ± 0.031
PPPRLSPTPSSR | 0.721 ± 0.05
NKSTAEVKMEIR | 0.686 ± 0.064
IGIIFTKCGGRT | 0.688 ± 0.037
EKYGKKIRRKNR | 0.766 ± 0.11
HYLHRDSLLRWL | 0.6182 ± 0.0033
GSFGQLIIRYSS | 0.568 ± 0.0088
IVLGGPAWPVAA | 0.613 ± 0.034
RARPPPQLHLSP | 0.745 ± 0.012
AAYGCSGGEVGW | 0.68 ± 0.025
KALGFHGGLHRF | 0.5733 ± 0.0027
WGRAGPSSPCSC | 0.709 ± 0.088
VLLHFRSFAPPV | 0.613 ± 0.008

Sequence | protein stability index
GVLIDVFGRSAV | 0.696 ± 0.029
KKKKKNKKENAE | 0.742 ± 0.086
DCYFNVHFKSIG | 0.654 ± 0.074
RSNNKFAKPIQY | 0.663 ± 0.11
LRFGGWFLIGLR | 0.583 ± 0.021
SFSSHRSPPPPL | 0.698 ± 0.13
GCGGVEAVGGVC | 0.586 ± 0.025
KAGLSFSRQRGW | 0.606 ± 0.058
SFARMTAIPGLR | 0.661 ± 0.029
TRGTRGWGSVVG | 0.735 ± 0.018
CAVGPQSSSCPR | 0.56 ± 0.03
PPHAPPPPPHVP | 0.713 ± 0.039
VPPPRLPQPLFP | 0.717 ± 0.052
RLPSSSFSPHRA | 0.688 ± 0.0069
CGGSLGAPVLVG | 0.588 ± 0.042
FCYVEDLSVSVD | 0.611 ± 0.0068
FSLLCGPGLRGF | 0.72 ± 0.02
EPMHTLKSIITH | 0.635 ± 0.073
RGGWGGGGAAGS | 0.649 ± 0.053
CRRCQRNRVLDG | 0.673 ± 0.068
WVLGGSWLRCRK | 0.726 ± 0.014
KNRAEMREGIAL | 0.63 ± 0.018
MGYDYAPISALF | 0.691 ± 0.1
FRGPRSFRGVVW | 0.757 ± 0.08
LLRYKWSRHLVG | 0.47 ± 0.046
RGKVVRLLLERM | 0.72 ± 0.067

Sequence | protein stability index
LGGGSGCVEGGL | 0.713 ± 0.082
HLSPGRLPPPVQ | 0.7136 ± 0.006
PMIENQQIDKTN | 0.649 ± 0.0095
VCGGGEGGERGG | 0.799 ± 0.057
PWWSRPAASVGV | 0.659 ± 0.047
SDKKGQKLKESQ | 0.693 ± 0.044
KAQKKGRHSKEL | 0.712 ± 0.0059
GRFVAPDSHPVG | 0.682 ± 0.021
QFEEFKRGFEVA | 0.722 ± 0.024
PPPSPPCTPSLI | 0.696 ± 0.036
CCFHRLRYSRAV | 0.647 ± 0.02
DLTRALQAGHDR | 0.695 ± 0.039
GDRTIALFFFTI | 0.671 ± 0.024
PEFNKLNRFVSQ | 0.74 ± 0.11
RERRFFPPSGFS | 0.71 ± 0.018
FQAPGGEIMSPS | 0.647 ± 0.012
KKKKKKTKNEIK | 0.643 ± 0.016
PPPRSSLRLPSA | 0.652 ± 0.063
SGAVGSTNYGTR | 0.743 ± 0.018
FPRLYHPNIKLP | 0.716 ± 0.13
